What is called IC50 is the concentration at which inhibition is half-maximal.

The results in this text go back to US5831051, “Receptor for peptide hormones involved in energy homeostasis, and method and compositions for use thereof” (The Rockefeller University, dated 1998).

The target of assay [1] is T1, recombinant human PACAP/VIP R-2 receptor (human).
T1 chain: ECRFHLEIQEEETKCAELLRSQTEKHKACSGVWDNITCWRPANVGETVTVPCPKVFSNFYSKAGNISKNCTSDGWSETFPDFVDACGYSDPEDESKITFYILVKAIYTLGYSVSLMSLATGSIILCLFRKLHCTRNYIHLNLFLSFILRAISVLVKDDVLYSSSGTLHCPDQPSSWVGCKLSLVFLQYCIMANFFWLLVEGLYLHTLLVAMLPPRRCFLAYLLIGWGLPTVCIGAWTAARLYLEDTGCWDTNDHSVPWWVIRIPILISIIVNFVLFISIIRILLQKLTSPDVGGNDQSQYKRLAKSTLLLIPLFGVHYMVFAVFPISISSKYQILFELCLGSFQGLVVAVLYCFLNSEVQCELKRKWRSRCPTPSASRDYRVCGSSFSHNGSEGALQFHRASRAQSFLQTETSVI
The assay is described as follows: competitive displacement of 125I-VIP on intact CHL cells expressing the receptor.
Description for binding result: (§1) Each peptide concentration prepared in Hank's balanced salt solution containing 20 mM HEPES, pH 7.4, 0.5% BSA and 0.1 mM phenylmethylsulfonyl-fluoride (PMSF) was added in triplicates to intact cells. Following the incubation, the cells were washed two times with ice-cold PBS, lysed with 1N NaOH, and radioactivity measured in gamma counter.

For assay [2], the target named is T1, recombinant human PACAP/VIP R-2 receptor. Nature of the assay: competitive displacement of 125I-VIP on intact CHL cells expressing the receptor; complete displacement not obtainable. Background: Loss of bound radioactivity is the signal in a displacement assay; it reports binding, not function.
Description: as §1
The target is the same in assay [3]. Nature of the assay: competitive displacement of 125I-PACAP-27 (44 pM) on intact CHL cells expressing the receptor.
Description: as §1
Assay [4] shares this target. The assay is described as follows: competitive displacement of 125I-VIP (44 pM) on intact CHL cells expressing the receptor; complete displacement not obtainable.
Description: as §1
(§2) To further confirm the identity of the receptor, the cDNA was expressed in a chinese hamster lung (CHL) cell line.
Assay [5] shares this target. Nature of the assay: competitive displacement of 125I-VIP (44 pM) on intact CHL cells expressing the receptor.
Description: as §1, §2

Where no end group is shown, it is not given here.

Consider secretin (ligand), for which the concentration at which 125I-VIP binding was displaced in assay [1] was 3.8 µM.
HADGSFSDEMNTILDNLAARDFINWLIQTKITD (ligand) [glucagon-like peptide-II (GLP-II)]: the binding result in assay [1] was “no binding”.
With HSDGIFTDSYSRYRKQMAVKKYLAAVL (ligand, ends and bridges not checked) [PACAP-27 (pituitary adenylate cyclase activating polypeptide, 27-amino acid peptide)], the IC50 in assay [2] was approximately 37 nM.
For the molecule HSDAVFTDNYTRLRKQMAVKKYLNSILN (ligand) [vasoactive intestinal polypeptide (VIP)], the results for the IC50 in assay [3] and in assay [4] were approximately 9 nM and approximately 5.8 nM, respectively.
HSDGIFTDSYSRYRKQMAVKKYLAAVLGKRYKQRVKNK (ligand, ends and bridges not checked) [PACAP-38 (pituitary adenylate cyclase activating polypeptide, 38-amino acid peptide)]: the IC50 in assay [3] was 4.1 nM; in assay [5], 1.8 nM.
Take HAEGTFTSDVSSYLEGQAAKEFIAWLVKGR (ligand) [glucagon-like peptide-I (GLP-1)]: the binding result in assay [1] is recorded as “no binding”.
